Results taken from IntAct's records for PubMed 31515488.

B1: Leucine-rich repeat-containing protein 45 (Homo sapiens), Q96CN5 (parent)
chain: MEEFRRSYSRLCRESGAEPQEAVLQQLHQLPRGRLDLATQSLTVETCRALGKLLPRETLCTELVLSDCMLSEEGATLLLRGLCANTVLRFLDLKGNNLRAAGAEALGKLLQQNKSIQSLTLEWNSLGTWDDAFATFCGGLAANGALQRLDLRNNQISHKGAEELALALKGNTTLQQLDLRWNNVGLLGGRALMNCLPSNRTLWRLDLAGNNIPGDVLRAVEQAMGHSQDRLTTFQENQARTHVLSKEVQHLREEKSKQFLDLMETIDKQREEMAKSSRASAARVGQLQEALNERHSIINALKAKLQMTEAALALSEQKAQDLGELLATAEQEQLSLSQRQAKELKLEQQEAAERESKLLRDLSAANEKNLLLQNQVDELERKFRCQQEQLFQTRQEMTSMSAELKMRAIQAEERLDMEKRRCRQSLEDSESLRIKEVEHMTRHLEESEKAMQERVQRLEAARLSLEEELSRVKAAALSERGQAEEELIKAKSQARLEEQQRLAHLEDKLRLLAQARDEAQGACLQQKQVVAEAQTRVSQLGLQVEGLRRRLEELQQELSLKDQERVAEVSRVRVELQEQNGRLQAELAAQEALREKAAALERQLKVMASDHREALLDRESENASLREKLRLREAEIARIRDEEAQRASFLQNAVLAYVQASPVRTLSPPK
partner: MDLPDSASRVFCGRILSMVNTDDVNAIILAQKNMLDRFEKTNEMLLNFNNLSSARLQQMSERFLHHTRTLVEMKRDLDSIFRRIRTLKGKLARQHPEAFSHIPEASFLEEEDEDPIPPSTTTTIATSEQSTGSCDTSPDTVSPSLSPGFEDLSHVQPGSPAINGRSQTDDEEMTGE
B2: Synaptonemal complex central element protein 3 (Homo sapiens), A1L190 (parent)
chain: MDDADPEERNYDNMLKMLSDLNKDLEKLLEEMEKISVQATWMAYDMVVMRTNPTLAESMRRLEDAFVNCKEEMEKNWQELLHETKQRL
partner: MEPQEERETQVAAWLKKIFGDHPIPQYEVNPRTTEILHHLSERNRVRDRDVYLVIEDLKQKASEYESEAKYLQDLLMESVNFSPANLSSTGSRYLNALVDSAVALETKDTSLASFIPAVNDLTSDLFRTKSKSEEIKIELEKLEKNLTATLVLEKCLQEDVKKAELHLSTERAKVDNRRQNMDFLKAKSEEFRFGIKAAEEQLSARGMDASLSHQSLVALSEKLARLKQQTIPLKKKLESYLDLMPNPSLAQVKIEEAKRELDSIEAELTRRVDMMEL
B3: Oxidative stress-induced growth inhibitor 1 (Homo sapiens), Q9UJX0 (parent)
chain: MSSSRKDHLGASSSEPLPVIIVGNGPSGICLSYLLSGYTPYTKPDAIHPHPLLQRKLTEAPGVSILDQDLDYLSEGLEGRSQSPVALLFDALLRPDTDFGGNMKSVLTWKHRKEHAIPHVVLGRNLPGGAWHSIEGSMVILSQGQWMGLPDLEVKDWMQKKRRGLRNSRATAGDIAHYYRDYVVKKGLGHNFVSGAVVTAVEWGTPDPSSCGAQDSSPLFQVSGFLTRNQAQQPFSLWARNVVLATGTFDSPARLGIPGEALPFIHHELSALEAATRVGAVTPASDPVLIIGAGLSAADAVLYARHYNIPVIHAFRRAVDDPGLVFNQLPKMLYPEYHKVHQMMREQSILSPSPYEGYRSLPRHQLLCFKEDCQAVFQDLEGVEKVFGVSLVLVLIGSHPDLSFLPGAGADFAVDPDQPLSAKRNPIDVDPFTYQSTRQEGLYAMGPLAGDNFVRFVQGGALAVASSLLRKETRKPP
partner: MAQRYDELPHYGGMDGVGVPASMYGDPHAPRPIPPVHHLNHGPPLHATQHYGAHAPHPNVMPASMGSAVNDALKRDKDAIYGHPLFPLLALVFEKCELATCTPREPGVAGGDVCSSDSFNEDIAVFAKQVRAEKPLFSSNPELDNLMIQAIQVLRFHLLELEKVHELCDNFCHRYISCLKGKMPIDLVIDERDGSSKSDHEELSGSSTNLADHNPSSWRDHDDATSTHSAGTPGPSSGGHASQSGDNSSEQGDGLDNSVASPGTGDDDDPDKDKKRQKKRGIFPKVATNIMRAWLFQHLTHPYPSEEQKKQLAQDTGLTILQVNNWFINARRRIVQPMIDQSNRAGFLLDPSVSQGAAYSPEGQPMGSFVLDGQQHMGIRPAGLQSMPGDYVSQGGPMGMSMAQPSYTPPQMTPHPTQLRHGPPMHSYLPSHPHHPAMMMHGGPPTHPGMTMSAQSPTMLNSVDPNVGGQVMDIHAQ
B4: Homeobox protein VENTX (Homo sapiens), O95231 (parent)
chain: MRLSSSPPRGPQQLSSFGSVDWLSQSSCSGPTHTPRPADFSLGSLPGPGQTSGAREPPQAVSIKEAAGSSNLPAPERTMAGLSKEPNTLRAPRVRTAFTMEQVRTLEGVFQHHQYLSPLERKRLAREMQLSEVQIKTWFQNRRMKHKRQMQDPQLHSPFSGSLHAPPAFYSTSSGLANGLQLLCPWAPLSGPQALMLPPGSFWGLCQVAQEALASAGASCCGQPLASHPPTPGRPSLGPALSTGPRGLCAMPQTGDAF
partner: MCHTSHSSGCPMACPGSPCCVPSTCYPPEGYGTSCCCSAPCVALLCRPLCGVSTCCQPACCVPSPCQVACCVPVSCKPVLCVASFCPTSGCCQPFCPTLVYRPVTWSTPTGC
B5: Tuftelin-interacting protein 11 (Homo sapiens), Q9UBB9 (parent)
chain: MSLSHLYRDGEGRIDDDDDERENFEITDWDLQNEFNPNRQRHWQTKEEATYGVWAERDSDDERPSFGGKRARDYSAPVNFISAGLKKGAAEEAELEDSDDEEKPVKQDDFPKDFGPRKLKTGGNFKPSQKGFAGGTKSFMDFGSWERHTKGIGQKLLQKMGYVPGRGLGKNAQGIINPIEAKQRKGKGAVGAYGSERTTQSMQDFPVVDSEEEAEEEFQKELSQWRKDPSGSKKKPKYSYKTVEELKAKGRISKKLTAPQKELSQVKVIDMTGREQKVYYSYSQISHKHNVPDDGLPLQSQQLPQSGKEAKAPGFALPELEHNLQLLIDLTEQEIIQNDRQLQYERDMVVNLFHELEKMTEVLDHEERVISNLSKVLEMVEECERRMQPDCSNPLTLDECARIFETLQDKYYEEYRMSDRVDLAVAIVYPLMKEYFKEWDPLKDCTYGTEIISKWKSLLENDQLLSHGGQDLSADAFHRLIWEVWMPFVRNIVTQWQPRNCDPMVDFLDSWVHIIPVWILDNILDQLIFPKLQKEVENWNPLTDTVPIHSWIHPWLPLMQARLEPLYSPIRSKLSSALQKWHPSDSSAKLILQPWKDVFTPGSWEAFMVKNIVPKLGMCLGELVINPHQQHMDAFYWVIDWEGMISVSSLVGLLEKHFFPKWLQVLCSWLSNSPNYEEITKWYLGWKSMFSDQVLAHPSVKDKFNEALDIMNRAVSSNVGAYMQPGARENIAYLTHTERRKDFQYEAMQERREAENMAQRGIGVAASSVPMNFKDLIETKAEEHNIVFMPVIGKRHEGKQLYTFGRIVIYIDRGVVFVQGEKTWVPTSLQSLIDMAK
partner: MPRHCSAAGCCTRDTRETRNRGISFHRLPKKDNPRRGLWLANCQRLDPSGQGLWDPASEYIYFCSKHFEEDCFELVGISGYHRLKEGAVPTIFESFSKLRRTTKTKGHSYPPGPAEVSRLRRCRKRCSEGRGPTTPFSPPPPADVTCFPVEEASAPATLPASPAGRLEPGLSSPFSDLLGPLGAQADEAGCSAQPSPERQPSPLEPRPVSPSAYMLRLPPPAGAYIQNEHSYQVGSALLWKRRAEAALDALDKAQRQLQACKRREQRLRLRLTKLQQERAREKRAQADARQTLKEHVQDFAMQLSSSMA

Variants of: B1
Conditions: with kxdl1_human KXD1, Q9BQD3

effect of a mutation on the interaction	Variant
with no effect	A365V
with no effect	R480H

Variants of: B2
Conditions: with haus1_human HAUS1, Q96CS2

effect of a mutation on the interaction	Variant
with no effect	R50C
with no effect	A65G

Variants of: B3
Conditions: with meis2_human MEIS2, O14770

effect of a mutation on the interaction	Variant
with no effect	D320N
with no effect	S236L

Variants of: B4
Conditions: with kr124_human KRTAP12-4, P60329

effect of a mutation on the interaction	Variant
with no effect	L42P
with no effect	A226E
with no effect	M251V

Variants of: B5
Conditions: with thap7_human THAP7, Q9BT49

effect of a mutation on the interaction	Variant
with no effect	R8Q
with no effect	S688L
